Experiments:
Assay in all cases: ELISA
[1] = molecular target: VLDLR(28–797)Δ(751–779)-C-tag (VLDLR ectodomain) (human, UniProt P98155-2 28-797, Δ(751–779))
Clu mutant CC3 = Clu mutant CC3 (human, UniProt P10909 23-227; P10909 228-449)
TL4 = molecular target: TL4
Clu mutant TL3 = Clu mutant TL3 (human, UniProt P10909 23-227; P10909 228-449)
Clu mutant DD2 = Clu mutant DD2 (human, UniProt P10909 23-227; P10909 228-449)
Clu mutant DD3 = Clu mutant DD3 (human, UniProt P10909 23-227; P10909 228-449)
Clu mutant DD1 = Clu mutant DD1 (human, UniProt P10909 23-227; P10909 228-449)

B1: Clu deletion mutant CC1 (natural protein)
chain 1: DQTVSDNELQEMSNQGSKYVNKEIQNAVNGVKQIKTLIEKTNEERKTLLSNLEEAKKKKEDALNETRESETKLKELPGVCNETMMALWEECKPCLKQTCMKFYARVCRSGSGLVGRQLEEFLNQSSPFYFWMNGDRIDSLLENDRQQTHMLDVMQDHFSRASSIIDELFQDRFFTREPQDTYHYLPFSLPHRRPHFFFPKSRIVR
chain 2: SLMPFSPYEPLNFHAMMDIHFHSPAFQHPPTEFIREGDDDRTVCREIRHNSTGCLRMKDQCDKCREILSVDCSTNNPSQAKLRRELDESLQVAERLTRKYNELLKSYQWKMLNTSSLLEQLNEQFNWVSRLANLTQGEDQYYLRVTTVASHTSDSDVPSGVTEVVVKLFDSDPITVTVPVEVSRKNPKFMETVAEKALQEYRKKHREE
modifications: deletion taken as helix α7 = 244-257 as printed; exact CC1 limits only in Fig. 3a; five interchain disulfides; six N-glycans Secreted from HEK293E, glycosylated, Ca2+-bound LDLR repeats, disulfides; C-terminal C-tag left out. Deletion 751-779 taken as printed, in the numbering of the long isoform
Q: With B1 as the binder, how does the Kd [1] read?
A: 662 nM

B2: VLDLR(28–797)Δ(751–779)-C-tag (VLDLR ectodomain) (receptor)
chain: not shown
Q: How did the Kd (Clu mutant CC3) turn out when B2 was run?
A: 109 nM

Q: And the Kd (TL4)?
A: 256 nM

Q: What about the Kd (Clu mutant TL3) of the same binder?
A: 989 nM

Q: And the Kd (Clu mutant DD2)?
A: 1190 nM

Q: What about the Kd (Clu mutant DD3) of the same binder?
A: 1180 nM

Q: And the Kd (Clu mutant DD1)?
A: 137 nM
